Test results taken from EP4596580A1 (Staidson (Beijing) Biopharmaceuticals Co., Ltd., dated 2025).
Read-outs that look alike come from different tables or passages of the source.

T1: His-human LIGHT (human)
T1 chain: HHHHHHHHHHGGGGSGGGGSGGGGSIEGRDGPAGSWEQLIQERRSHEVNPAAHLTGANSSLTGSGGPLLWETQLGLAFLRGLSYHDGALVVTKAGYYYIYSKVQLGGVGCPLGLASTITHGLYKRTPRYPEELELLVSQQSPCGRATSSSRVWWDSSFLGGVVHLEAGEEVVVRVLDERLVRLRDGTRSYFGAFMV

T2: His-cynomolgus monkey LIGHT (cynomolgus monkey)
T2 construct: also called His-cynoLIGHT
T2 chain: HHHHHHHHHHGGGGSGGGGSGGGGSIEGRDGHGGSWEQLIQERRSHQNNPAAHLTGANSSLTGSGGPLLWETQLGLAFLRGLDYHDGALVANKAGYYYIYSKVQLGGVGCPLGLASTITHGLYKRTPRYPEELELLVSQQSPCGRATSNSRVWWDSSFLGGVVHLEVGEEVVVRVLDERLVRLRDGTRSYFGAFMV

T3: His-mouse LIGHT (mouse)
T3 construct: also called His-musLIGHT
T3 chain: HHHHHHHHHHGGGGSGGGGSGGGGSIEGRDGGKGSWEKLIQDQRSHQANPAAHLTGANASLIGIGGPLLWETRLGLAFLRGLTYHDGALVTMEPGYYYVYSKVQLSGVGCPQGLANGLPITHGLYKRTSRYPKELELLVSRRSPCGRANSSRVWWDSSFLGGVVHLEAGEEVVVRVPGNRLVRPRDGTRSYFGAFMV


What was measured:
His-human LIGHT [1] = molecular target: T1, His-human LIGHT; experiment: cell-based or functional assay
hFc-human LIGHT [2] = molecular target: T4, hFc-human LIGHT (human); experiment: competition ELISA, LTβR-His coated, hFc-huLIGHT added
T4 construct: also called hFc-huLIGHT

His-human LIGHT [3] = molecular target: T1, His-human LIGHT; experiment: SPR, Biacore 8K, antibody on CM5 chip, human LIGHT
His-human LIGHT [4] = molecular target: T1, His-human LIGHT; experiment: ELISA, His-huLIGHT coated
[5] = molecular target: LIGHT on the surface of HEK293-LIGHT stable cells (human, UniProt O43557 1-240); experiment: cell-based or functional assay
[6] = molecular target: T2, His-cynomolgus monkey LIGHT; experiment: ELISA, His-cynoLIGHT coated
His-mouse LIGHT = molecular target: T3, His-mouse LIGHT; experiment: ELISA, His-musLIGHT coated
His-human LIGHT [7] = molecular target: T1, His-human LIGHT; experiment: cell-based or functional assay
[8] = molecular target: T2, His-cynomolgus monkey LIGHT; experiment: SPR, Biacore 8K, antibody on CM5 chip
His-human LIGHT [9] = molecular target: T1, His-human LIGHT; experiment: SPR, Biacore 8K, antibody on CM5 chip
His-human LIGHT [10] = molecular target: T1, His-human LIGHT; experiment: ELISA, His-huLIGHT coated
hFc-human LIGHT [11] = molecular target: T4, hFc-human LIGHT; experiment: competition ELISA, LTβR-His coated, hFc-huLIGHT added; remark: listed apart in the source
His-human LIGHT [12] = molecular target: T1, His-human LIGHT; experiment: ELISA, His-huLIGHT coated

Row | Binder | IC50, LTβR NF-κB luciferase reporter, free LIGHT (His-human LIGHT [1]) [µg/mL] | IC50 (hFc-human LIGHT [2]) [nM] | Kd (His-human LIGHT [3]) [nM] | koff (His-human LIGHT [3]) [s⁻¹] | kon (His-human LIGHT [3]) [M⁻¹ s⁻¹] | EC50 (His-human LIGHT [4]) [µg/mL] | IC50, LTβR NF-κB luciferase reporter, HEK293-LIGHT cells [5] [µg/mL] | EC50 [6] [nM] | IC50 (hFc-human LIGHT [11]) [nM] | EC50 (His-human LIGHT [12]) [nM] | other results
1 | hum_LT-m37-7 (antibody, human IgG4, V domains shown, humanized from LT-m37) VH: QVQLVQSGAEVKKPGASVKVSCKASGYSFTGYFINWVRQAPGQGLEWIGRIYPYNVNTFYNQNFKGRATMTADKSTSTAYMELSSLRSEDTAVYYCGRGTHYYGSSGAMDYWGQGTLVTVSS VL: EIVMTQSPATLSVSPGERATLSCKASQNVGTAVAWYQQKPGQSPRLLIYSASNRYTGIPARFSGSGSGTEFTLTISSLQSEDFAVYFCQQYSSYPYTFGGGTKVEIK | 0.135 | 0.069 | 0.041 | 5.34e-05 | 1.3e+06 | 0.0801 | 3.72 | 0.0474 |  |  | 
2 | hum_LT-m37-9 (antibody, human IgG4, V domains shown, humanized from LT-m37) VH: QVQLVQSGAEVKKPGASVKVSCKASGYSFTGYFINWVRQAPGQSLEWIGRIYPYNVNTFYNQNFKGRATLTADKSTSTAYMELSSLRSEDTAVYYCGRGTHYYGSSGAMDYWGQGTLVTVSS VL: EIVLTQSPATLSVSPGERATLSCKASQNVGTAVAWYQQKPGQSPRLLIYSASNRYTGIPARFSGSGSGTEFTLTISSLQSEDFAVYYCQQYSSYPYTFGGGTKVEIK | 0.227 | 0.083 | 0.383 | 8.03e-05 | 210000 | 0.0825 | 3.86 | 0.0478 |  |  | 
3 | hum_LT-m37-12 (antibody, human IgG4, V domains shown, humanized from LT-m37) VH: QVQLVQSGAEVKKPGASVKVSCKASGYSFTGYFINWVRQAPGQGLEWIGRIYPYNVNTFYNQNFKGRVTMTADKSTSTAYMELSSLRSEDTAVYYCGRGTHYYGSSGAMDYWGQGTLVTVSS VL: EIVLTQSPATLSVSPGERATLSCKASQNVGTAVAWYQQKPGQSPRLLIYSASNRYTGIPARFSGSGSGTEFTLTISSLQSEDFAVYYCQQYSSYPYTFGGGTKVEIK | 0.144 | 0.0773 | 0.0575 | 6.75e-05 | 1.18e+06 | 0.0878 | 2.57 | 0.053 |  |  | 
4 | hum_LT-m37-11 (antibody, human IgG4, V domains shown, humanized from LT-m37) VH: QVQLVQSGAEVKKPGASVKVSCKASGYSFTGYFINWVRQAPGQGLEWIGRIYPYNVNTFYNQNFKGRATMTADKSTSTAYMELSSLRSEDTAVYYCGRGTHYYGSSGAMDYWGQGTLVTVSS VL: EIVLTQSPATLSVSPGERATLSCKASQNVGTAVAWYQQKPGQSPRLLIYSASNRYTGIPARFSGSGSGTEFTLTISSLQSEDFAVYYCQQYSSYPYTFGGGTKVEIK | 0.203 | 0.0864 | 0.062 | 7.69e-05 | 1.24e+06 | 0.0907 | 2.93 | 0.0494 |  |  | 
5 | hum_LT-m37-10 (antibody, human IgG4, V domains shown, humanized from LT-m37) VH: QVQLVQSGAEVKKPGASVKVSCKASGYSFTGYFINWVRQAPGQGLEWIGRIYPYNVNTFYNQNFKGRATLTADKSTSTAYMELSSLRSEDTAVYYCGRGTHYYGSSGAMDYWGQGTLVTVSS VL: EIVLTQSPATLSVSPGERATLSCKASQNVGTAVAWYQQKPGQSPRLLIYSASNRYTGIPARFSGSGSGTEFTLTISSLQSEDFAVYYCQQYSSYPYTFGGGTKVEIK | 0.153 |  |  |  |  | 0.0918 | 4.46 | 0.0463 |  |  | 
6 | hum_LT-m37-8 (antibody, human IgG4, V domains shown, humanized from LT-m37) VH: QVQLVQSGAEVKKPGASVKVSCKASGYSFTGYFINWVRQAPGQGLEWIGRIYPYNVNTFYNQNFKGRVTMTADKSTSTAYMELSSLRSEDTAVYYCGRGTHYYGSSGAMDYWGQGTLVTVSS VL: EIVMTQSPATLSVSPGERATLSCKASQNVGTAVAWYQQKPGQSPRLLIYSASNRYTGIPARFSGSGSGTEFTLTISSLQSEDFAVYFCQQYSSYPYTFGGGTKVEIK | 0.17 | 0.0676 | 0.038 | 4.86e-05 | 1.28e+06 | 0.0795 | 3.22 | 0.0449 |  |  | 
7 | LT-m64 (antibody, human IgG4, V domains shown) VH: EVKLEESGAELVKPGASVRLSCKTSGYTFTNYYVYWVKQRPGQGLEWIGEINPTNGDPNFNEKFKSKATLTVDKSSSTAYMHLSSLTSEDSAVYYCTRSNWDYGNAMDFWGQGTSVTVSS VL: DIVMTQSPASLAVSLGQRATISCKASQSVDFDGDGYMNWYQQKPGQPPKLLIYKASHLDSGIPARFSASGSGTDFTLNIHPVEEEDAATYYCQQSIEDPFTFGSGTKLEIK |  |  |  |  |  |  |  |  |  |  | binding result (His-mouse LIGHT): no binding; IC50, HVEM NF-κB luciferase reporter (293T-HVEM-NF-κB-Luc), free LIGHT (His-human LIGHT [7]): 0.264 µg/mL; Kd [8]: 0.0487 nM; koff [8]: 4.89e-05 s⁻¹; kon [8]: 1e+06 M⁻¹ s⁻¹; Kd (His-human LIGHT [9]): 0.0557 nM; koff (His-human LIGHT [9]): 5.61e-05 s⁻¹; kon (His-human LIGHT [9]): 1.01e+06 M⁻¹ s⁻¹; EC50 (His-human LIGHT [10]): 0.0112 µg/mL
8 | hum_LT-m85-5 (antibody, human IgG4, V domains shown, humanized from LT-m85) VH: QVQLVQSGAEVKKPGASVKVSCKASGYTFTSYNVHWVRQAPGQGLEWIGAVYPGNGDTSYNQKFKGRATLTADKSTSTAYMELSSLRSEDTAVYYCARGSYYYTSSYFDHWGQGTLVTVSS VL: DIVLTQSPDSLAVSLGERATINCKASQSVDFDGDSYMNWYQQKPGQPPKLLIYTASNLESGIPDRFSGSGSGTDFTLTISSLQAEDVAVYYCQQSYEDPFTFGQGTKVEIK |  |  |  |  |  |  |  |  | 0.174 | 0.0061 | 
9 | hum_LT-m85-7 (antibody, human IgG4, V domains shown, humanized from LT-m85) VH: QVQLVQSGAEVKKPGASVKVSCKASGYTFTSYNVHWVRQAPGQGLEWIGAVYPGNGDTSYNQKFKGRATLTADKSTSTVYMELSSLRSEDTAVYYCARGSYYYTSSYFDHWGQGTLVTVSS VL: DIVLTQSPDSLAVSLGERATINCKASQSVDFDGDSYMNWYQQKPGQPPKLLIYTASNLESGIPDRFSGSGSGTDFTLTISSLQAEDVAVYYCQQSYEDPFTFGQGTKVEIK |  |  |  |  |  |  |  |  | 0.223 | 0.00542 | 
10 | hum_LT-m85-6 (antibody, human IgG4, V domains shown, humanized from LT-m85) VH: QVQLVQSGAEVKKPGASVKVSCKASGYTFTSYNVHWVRQAPGQGLEWMGAVYPGNGDTSYNQKFKGRATLTADKSTSTAYMELSSLRSEDTAVYYCARGSYYYTSSYFDHWGQGTLVTVSS VL: DIVLTQSPDSLAVSLGERATINCKASQSVDFDGDSYMNWYQQKPGQPPKLLIYTASNLESGIPDRFSGSGSGTDFTLTISSLQAEDVAVYYCQQSYEDPFTFGQGTKVEIK |  |  |  |  |  |  |  |  | 0.195 | 0.00479 | 
11 | hum_LT-m85-8 (antibody, human IgG4, V domains shown, humanized from LT-m85) VH: QVQLVQSGAEVKKPGASVKVSCKASGYTFTSYNVHWVRQAPGQGLEWIGAVYPGNGDTSYNQKFKGRATLTADKSTSTAYMELSSLRSEDTAVYYCARGSYYYTSSYFDHWGQGTLVTVSS VL: DIVMTQSPDSLAVSLGERATINCKASQSVDFDGDSYMNWYQQKPGQPPKLLIYTASNLESGVPDRFSGSGSGTDFTLTISSLQAEDVAVYYCQQSYEDPFTFGQGTKVEIK |  |  |  |  |  |  |  |  | 0.189 | 0.00951 | 
12 | hum_LT-m85-9 (antibody, human IgG4, V domains shown, humanized from LT-m85) VH: QVQLVQSGAEVKKPGASVKVSCKASGYTFTSYNVHWVRQAPGQGLEWIGAVYPGNGDTSYNQKFKGRATLTADKSTSTVYMELSSLRSEDTAVYYCARGSYYYTSSYFDHWGQGTLVTVSS VL: DIVMTQSPDSLAVSLGERATINCKASQSVDFDGDSYMNWYQQKPGQPPKLLIYTASNLESGVPDRFSGSGSGTDFTLTISSLQAEDVAVYYCQQSYEDPFTFGQGTKVEIK |  |  |  |  |  |  |  |  | 0.204 | 0.002 | 
13 | LT-m17 (antibody, human IgG4, V domains shown) VH: QVQLQQSGPELVKPGASVKISCKASGYSFTGYFMNWVKQSHGKSLEWIGRIYPYSGDTFYNQKFNNKATLTVDKSSSTAHLELLSLTSEDSAVYYCGRSEHFGRNYGTGAVDYWGQGTSVTVSS VL: DVVMTQTPLSLPVSLGDQASISCRSSQGLVHSNGNTYLHWYLQKPGQSPKLLIYKVSNRFSGVPDRFSGSGSGTDFTLKISRVEAEDLGIYFCSQSTHVPYTFGGGTKLEIK |  |  |  |  |  |  |  |  |  |  | IC50, HVEM NF-κB luciferase reporter (293T-HVEM-NF-κB-Luc), free LIGHT (His-human LIGHT [7]): 0.184 µg/mL; Kd [8]: 0.0582 nM; koff [8]: 4.24e-06 s⁻¹; kon [8]: 72700 M⁻¹ s⁻¹; EC50 (His-human LIGHT [10]): 0.0871 µg/mL
14 | LT-m18 (antibody, V domains shown) VH: EVKLLESGPELVKPGASVKISCKASGYSFTGYFMNWVKQSHGKSLEWIGRIYPYSGDTFYNQKFNNKATLTVDKSSSTAHLELLSLTSEDSAVYYCGRSEHFGRNYGTGAVDYWGQGTSVTVSS VL: DIVLTQSPLSLPVSLGDQASISCRSSQSLVHSNGNTYLHWYLQKPGQSPKLLIYKVSNRFSGVPDRFSGSGSGTDFTLKISRVEAEDLGVYFCSQSTHVPLTFGDGTRLEIK |  |  |  |  |  |  |  |  |  |  | Kd [8]: 0.16 nM; koff [8]: 1.26e-05 s⁻¹; kon [8]: 79100 M⁻¹ s⁻¹; EC50 (His-human LIGHT [10]): 0.0835 µg/mL
